Source: the DeepSol protein solubility set

Assay: soluble on expression in E. coli; label from the status in PepcDB or PDB records

Sequence | soluble on expression in E. coli
MSLKPEEIVEGLLSGNRRALARAITYVENEYPESKEIMRQIFAKTGRAHVVGLTGFPGVGKSTLVSKLTEEFRRRGKKVGIIAIDPGSPFTGGALLGDRLRLDGMDSRKQLWTDPGIFFRSMSSRGRAGGLAAKTGDVVRLLDAFGFDVILVETVGAGQSEVDIIEVADTSVVVMMPETGDEIQVNKAGILEIGDIYVVNKADLGGAEKVERWLRYMLSLDEESVQMLSQMTHADEARVQSGEFFERRKGWNPPVIKTVADRGEGIKELADAIEEHFDYMKKTGLIEKRRRERVKRELFEIVMNDVIKLVKEKTNYRDLLVKLLKGETDPYTAAEQIVEEVIHNAGKGEGHHHHHH | soluble
MFSPSKFRKQVNESESVSNCESTTSNSRRILDQHAGLPISSAFRTEASDIGHHFSTKMYFKILSPNNVFALMGDNEFKTSFKIFTIFEPTSTPNGKIQSLITISYKINNVLFKMEKEIFIEKVNIFSLELHIFNFQSTNRSNPASESIHQLDLSSEALVTSTLNIRGNKITTTLRPRTSPYKRAGDASMSREDLRSPDSVSTFTTVLHVFHKVFQVAATYTIRENRSERQTKVKLESLERRLKANEKARKEIEAEAEKWKDRATRNSKRLPELELELAETVQAKEEWQVKSQEMEIQNKQLVEELNEVQKKLEEIENSQKTFHQKVVSTLNLDEEYFQNPDEEQDGSLSQFNMDVLEQEIVKYQEKCISLKQENEILKEKLQQLSSSLTVNQNHVSTLMDHLEINKEQSREIQGICKKEIAIRQDHENRINHDVTLLNSLINEQKMELEMLKAEIRCLRSYSQEMSQSNKNNIILLKSAETERKSLLETLTVLLNSEEEATENNVKRTIRDLVRERDTEQTKRFEAEKAASNAEGVLLEQAKQQRNALFRARVSEEEYSKSMEKIEELEQELLASDLERKNLEHKIASLENCISKVSQLLNVNVGGVFDAIFDRIEELIAQESVYRVVVNENRLISENIFRGLQSVRKDFQSGKSGGGSDKKQPASPVAAAAKIIQERHTLKTIDKMDKLNKDLLATMTIETLKAADIEKTNLKKRMNEQDARIRQLEREKKEGERIRSIIAKWEKRNIPKTEKSSPMKKVPPIENFRAKSQTSITGLSPVL | not soluble
MEIPPTNYPASRAALVAQNYINYQQGTPHRVFEVQKVKQASMEDIPGRGHKYRLKFAVEEIIQKQVKVNCTAEVLYPSTGQETAPEVNFTFEGETGKNPDEEDNTFYQRLKSMKEPLEAQNIPDNFGNVSPEMTLVLHLAWVACGYIIWQNSTEDTWYKMVKIQTVKQVQRNDDFIELDYTILLHNIASQEIIPWQMQVLWHPQYGTKVKHNSRLPKEVQLE | soluble
MGSDKIHHHHHHMNEAQQLQQMQPLLYKQLQKSFEHGRLAHAYLFEGDTGTGKQEFGLWMAKHVFCTNLVNQQPCNECHNCVRINENEHPDVLRIAPDGQTIKVNQIRELKAEFSKSGVETAKKVFLIQEADKMSTGAANSLLKFLEEPEGQILAILETTSLSRILPTIQSRCQTLHFQPLVKKTLIDRLIKQGIGEKTATLLAELTNSFEKAVEISQDEWFNEAREIILQWFNYLKSNDLQAFIYVQKKMVKVFKEKEQQALSFDLLMVYYRQLLEESVATQQAKKVTEEQAERLALILKARQKWTANVSWQNVCEQLVIQMIHPKS | not soluble
MGSDKIHHHHHHMSHLLKPKPNLLLIDDDEDVLDACRQLFNLSGYQVRATNSPQKALEALSRDWDGVVISDIYMPAMHGLDLLAAVHHIDPQIPVIMITGHADIPLAVKAVKQGAADFIEKPLDPPTFLALVKKAATQRHQLIGQRQNIQDSLAGQLLGSSAQINDLREQLGQLALTDRDVMLEGPRGVGRNTLAALLHKLGPRAEGPLQQLECALVESPEKLQQAVDASRGGTLILRELEHLPTDSQRWLASFLLDQERRGNKEVRTIAILESQPETLVQEQTLTPECFYYFSQVRLRLPALCERPSDIVPLFMAFLKESCRRLSRKMPTVENRYLDNLKQHSWPGNVRELRNVAELYAVGIVKLANVQRIAAAPSVKGPLDELVDDYEKRLIEDALFLFSGRVSEAADYLNVPRKKLYLRMKKYGLDKECFKPVKPGRG | not soluble
LHPDKCRAPHATEAFKALGNAYAVLSDTDKRRQYDQYGAEAANSHTPTTRRRGGGHGAFFEHDYAHGFEAEFTPEEIFNMFFGGGFPTEQVRRRARYAQQQQYHHYEQQQSPYGPLLQLLPLIAIMVIGLLAQLMVGEPAYSLHQTSKFTIKRLTADLRVPYFVRTDFETSYRGRIRQVEQQVEDDYIQNLRMNCYKEQNLKETKLYRARWMRDEAMMRDAERTPLPSCIRLNEIYSH | not soluble
MGSDKIHHHHHHMRIGLFTDTYFPQVSGVSTSIRTLKEGLEKEGHEVYIFTTTDRNVKRFEDPTIIRLPSVPFISFTDRRVVYRGLISAYRIAKDYELDIIHTQTEFSLGLLGKLVAKALRIPVVHTYHTQYEDYVGYIAKGKLIKPSMVKYIMRTYLSDLDGVICPSRIVLNLLDGYGVKIPKQVIPTGIPVENYRREDISEETIKNLRTELGLADNDTMLLSLSRVSFEKNIQAILMHLSAVVDENPHVKLVIVGDGPYLSDLKELVHSLELENSVIFTGMVEHSQVAIYYKACDFFISASTSETQGLTYIESLASGRPIIAQSNPYLDDVISDKMFGTLYKKESDLADAILDAIAETPKMTQEAYEQKLYEISAENFSKSVYAFYLDFLISQKASVKEKVSLTIGNKDSHSTLRFVRKAVYLPKKVFTFTGRASKKVVKAPKRRISSIRDFLD | not soluble
DIVMTQTPKFLLVSAGDKVTITCKASQSVSNDLTWYQQKPGQSPKLLIYYASNRYTGVPDRFTGSGYGTDFTFTISTVQAEDLAVYFCQQDYGSPPTFGGGTKVEIKRTVAAPSVFIFPPSDEQLKSGTASVVCLLNNFYPREAKVQWKVDNALQSGNSQESVTEQDSKDSTYSLSSTLTLSKADYEKHKVYACEVTHQGLSSPVTKSFNRGEC | soluble
KTTVRVGLVQWQMRPYKTLDDVFEQVEFFVDAVSDYKSDFVLFPEYFNAPLMAKFNHLGEAQSIRGLAQYTEEVRDRFINLAISYNINIITGSMPYVKEDGGLYNVGFLVRRDGSYEMYEKVHVTPDEIKSWGLSGGKMVQTFDTDCAKIGILICYDVEFPELSRIMADQGMQILFVPFLTDTQNGYSRVRVCAQARAIENECFVVIAGSVGNLPRVHNMDIQYAQSGVFTPCDFAFPTDGKRAEATPNTEMILVSDVDLNLLNELHTYGSVRNLRDRRHDLYELKIKK | not soluble
MSLENKIVKIEPQSIAEEMGIEVGDSLISINGKEVKDIIDYRFLMADEYVVVKIQKTNKEIWELEIEKEYDEKLGVEFESGILDSAKSCRNKCIFCFIDQLPKGMRKTLYFKDDDSRLSFLQGNFVTLTNMSDDDIDRIIKYRISPINISVQTTNPELRKKMLNNKFAGNLMERMKKLSNAGITMNCQVVLCPGINSGEEFSKTVNDLYKLYPSVKNIAGVPVGITSYREGLFNMVPYDSQSALKEIENIKPIQEKFIKEIGSPFVRLSDEFYVLSGIPIPKAEFYGEFEQFEDGIGMIRTFRDNINMSLDNLKDGIHKSFTMVTGVLAYEEIENAAKMLMEKSRGLKINVIKVINEFFGEKITVAGLLTGRDILNYLKRNEVGDYIILPSNMLKSDEDVFLDDVKVLDIEKELNKKVLVCNYSGEDLVDIINKNGREEEGHHHHHH | not soluble
MSLSMKSELRKQVLHEMKAISQEQKQAIDQALTERLLHHPFYQEAKVIATYLSFSHEFQTRELIEQALKDGKKVLIPKTYPKGRMEFVAYDPQQLVKTSFALLEPQGDVEVVDASQIDLIHVPGLAFTTKGYRIGYGGGYYDRYLEHFSGRTLSTIYPCQIQDFIPEEGHHHHHH | not soluble
MLNSNNHQTEWKWPRLIQIMEIGNSAMKNTMSKTLYMSYNFIARTSGKTYHAPVLVVDCSVNEGWLWMRICHNCLGCLCTGYWAAQRTFATTTGLRLVWL | soluble
TVIYDKNEKQAGTLYGQKGTYVELDAISDDLENAVISTEDRSFYKNSGINYKRMLLAIVTLGYSGGGSTITQQLAKNAFLTQEQTVKRKAREFFLALELTKKYSKKEILTMYLNNAYFGNGVWGVEDASQKYFGTSASRLTLDEAATLAGMLKGPGIYNPLYSI | not soluble
MGSDKIHHHHHHMNEIKRIDTVQQYNDYFGMETLHPLVTVIDAREANPVHFCPKLYNLYAILMKDPDCGTLKYGRSIYDYQQGTMLFLAPGQVMGSDDDGQLHQPGGWLLAFHPELVRNTPLAQFIKNYSFFSYSANEALHLSEQERRTIIDCMCKIREELLHPIDKHTKSLITDNIKLLLDYCERFYDRQFETRENVNLDILARFEQTLDDYLASNLPISKGTPTVQYCADKLCLSANYLSDLLKKETGVSALKHIQQKMLDIAKERVFDVTKSISEISYELGFPYPQHFSRWFKKMVGVTPNEYRQNRNN | not soluble
